Test results published in patent publication US20200332017A1 (SALUBRIS CHENGDU BIOTECH, published 2020).

Assays:
[1] = molecular target: T1, full length human CD40 (uniprot # P25942-1) on the membrane of 293T-CD40 cells (human, UniProt P25942 21-277); assay: flow cytometry on 293T-CD40 cells, PE-labeled secondary antibody, MFI
T1 construct: also called cell surface CD40
Experimental: 2×10⁵ cells per well in 96 well-plates were incubated with the mouse anti-CD40 antibodies or the controls of various concentrations in FACS buffer for 40 minutes on ice. […] Following an incubation of 40 minutes at 4° C. in dark, cells were washed three times and resuspended in FACS buffer. Fluorescence was measured using a Becton Dickinson FACS Canto II-HTS equipment and plotted against antibody concentration.

[2] = molecular target: T2, human CD40-Fc protein (amino acid residue 21-193 of SEQ ID NO: 67 linked to N-terminus of amino acid residue … (human, biotin-labeled in the capture ELISA and in the benchmark blocking ELISA; unlabeled when coated in the ligand blocking ELISA); assay: capture ELISA (antibody captured on coated goat anti-human IgG F(ab')2, biotin-labeled human CD40-Fc in solution, streptavidin-HRP, OD(450-630))
T2 construct: also called biotin-labeled human CD40-Fc; human CD40-Fc-biotin
T2 sequence (chain, as listed by the source): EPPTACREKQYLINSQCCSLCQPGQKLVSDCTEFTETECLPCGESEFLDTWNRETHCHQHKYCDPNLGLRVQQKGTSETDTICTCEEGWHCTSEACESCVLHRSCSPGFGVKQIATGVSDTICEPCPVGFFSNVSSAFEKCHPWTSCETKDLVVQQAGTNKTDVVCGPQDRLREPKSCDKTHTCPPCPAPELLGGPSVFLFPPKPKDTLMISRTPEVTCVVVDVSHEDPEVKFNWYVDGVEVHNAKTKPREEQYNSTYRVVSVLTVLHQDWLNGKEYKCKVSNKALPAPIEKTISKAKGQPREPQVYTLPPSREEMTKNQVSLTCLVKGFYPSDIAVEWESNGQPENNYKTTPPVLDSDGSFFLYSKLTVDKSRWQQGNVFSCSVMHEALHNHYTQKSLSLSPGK

T1 sequence (P25942 21-277 limits assumed, one chain of several): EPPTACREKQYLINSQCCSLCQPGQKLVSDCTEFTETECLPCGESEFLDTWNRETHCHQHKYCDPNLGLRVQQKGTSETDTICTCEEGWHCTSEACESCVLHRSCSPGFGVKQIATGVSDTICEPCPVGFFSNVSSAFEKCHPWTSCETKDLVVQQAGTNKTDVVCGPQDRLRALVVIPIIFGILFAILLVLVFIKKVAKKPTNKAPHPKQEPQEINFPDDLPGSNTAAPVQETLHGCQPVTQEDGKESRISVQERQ

EC50 (read off the curve) [1] | EC50 (read off the curve) [2] | Binder
~0.5 nM | – | mouse anti-CD40 monoclonal antibody C1C1 (antibody, V domains shown, those are used here for the chimeric antibody only; also called Mouse C1C1; mouse C1C1) VH: EVKLVESGGGLVKPGASLKLSCAASGFTFSNYGMSWVRQNSDKRLEWVASISSGGDDTYYPDNVKGRCTISRENAKNTLYLEMSSLKTEDTALYYCTRAGGKAMDYWGQGTSVTVST VL: DIVLTQSPATLSVIPGNSVSLSCRASQSIRDNLHWYQQKSHESPRLLINYASQSISGIPSRFSGSGSGTDFTLTINSVETEDFGIYFCQQFNSWPLTFGGGTKLELK
– | ~0.03 µg/mL | chimeric antibody C1C1 (antibody, human IgG1, kappa, V domains shown, also called chC1C1; chimeric C1C1) VH: EVKLVESGGGLVKPGASLKLSCAASGFTFSNYGMSWVRQNSDKRLEWVASISSGGDDTYYPDNVKGRCTISRENAKNTLYLEMSSLKTEDTALYYCTRAGGKAMDYWGQGTSVTVST VL: DIVLTQSPATLSVIPGNSVSLSCRASQSIRDNLHWYQQKSHESPRLLINYASQSISGIPSRFSGSGSGTDFTLTINSVETEDFGIYFCQQFNSWPLTFGGGTKLELKR
